Assay results published in patent US20160152686A1.

Assays:
[1] = biological target: human serum albumin (human) (UniProt P02768); assay: SPR, affinity to HSA
[2] = biological target: VEGFR2 as engaged in the VEGF hBa/F3 proliferation assay; assay: cell-based or functional assay

Sequence of human serum albumin (human) (P02768 25-609): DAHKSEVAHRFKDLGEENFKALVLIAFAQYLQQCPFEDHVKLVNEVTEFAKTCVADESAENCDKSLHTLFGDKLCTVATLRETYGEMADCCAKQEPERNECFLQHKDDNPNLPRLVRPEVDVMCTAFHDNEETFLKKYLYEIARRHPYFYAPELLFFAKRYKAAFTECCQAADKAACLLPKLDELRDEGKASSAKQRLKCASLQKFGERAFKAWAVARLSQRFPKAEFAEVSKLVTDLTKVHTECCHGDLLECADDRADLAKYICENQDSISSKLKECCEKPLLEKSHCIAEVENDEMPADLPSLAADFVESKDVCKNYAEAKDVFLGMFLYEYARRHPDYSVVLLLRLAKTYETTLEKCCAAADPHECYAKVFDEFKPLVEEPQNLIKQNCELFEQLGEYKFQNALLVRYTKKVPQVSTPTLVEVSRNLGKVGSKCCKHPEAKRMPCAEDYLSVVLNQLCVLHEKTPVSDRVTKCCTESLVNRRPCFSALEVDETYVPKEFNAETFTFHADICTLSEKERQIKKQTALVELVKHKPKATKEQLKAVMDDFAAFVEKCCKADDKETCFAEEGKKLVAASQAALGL

| Kd [1] | IC50, VEGF hBa/F3 proliferation assay [2] | IC50, VEGF hBa/F3 proliferation assay, with HSA [2] | Rel Pot (C7FL), VEGF hBa/F3 proliferation assay [2] | Rel Pot (C7FL), VEGF hBa/F3 proliferation assay, with HSA [2] | Substance |
| --- | --- | --- | --- | --- | --- |
| 1.6 to 2.6 nM |  |  |  |  | ABD (alone; column 'ABD' of Table 6) |
|  | 7.53 | 8.85 | 0.62 | 0.53 | CT-322 (C7FL lacking the 8 N-terminal amino acids and linked to PEG) (designed binder) |
